T1: APBA2_1, Q99767
T1 sequence (Q99767 563-664, limits assumed, looked up): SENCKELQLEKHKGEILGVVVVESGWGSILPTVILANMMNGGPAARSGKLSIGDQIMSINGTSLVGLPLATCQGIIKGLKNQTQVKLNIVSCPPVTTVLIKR

T2: APBA2_2, Q99767
T2 sequence (Q99767 654-744, limits assumed, looked up): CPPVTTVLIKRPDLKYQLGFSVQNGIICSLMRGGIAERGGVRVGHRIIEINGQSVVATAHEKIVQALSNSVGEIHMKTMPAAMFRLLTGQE

T3: ARHGAP21, Q5T5U3
T3 sequence (Q5T5U3 45-169, limits assumed, looked up): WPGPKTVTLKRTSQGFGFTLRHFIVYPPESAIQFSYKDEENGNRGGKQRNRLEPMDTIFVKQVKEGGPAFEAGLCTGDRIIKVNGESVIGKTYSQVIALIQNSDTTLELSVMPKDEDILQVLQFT

T4: FRMPD1, Q5SYB0
T4 sequence (Q5SYB0 52-145, limits assumed, looked up): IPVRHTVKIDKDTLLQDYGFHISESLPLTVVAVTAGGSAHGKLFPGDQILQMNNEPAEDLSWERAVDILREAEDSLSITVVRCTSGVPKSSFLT

T5: GRIP1_3, Q9Y3R0
T5 sequence (Q9Y3R0 247-346, limits assumed, looked up): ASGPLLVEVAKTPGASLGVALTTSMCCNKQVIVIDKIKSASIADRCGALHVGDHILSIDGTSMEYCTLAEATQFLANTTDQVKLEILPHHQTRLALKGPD

T6: HTRA3, P83110
T6 sequence (P83110 354-453, limits assumed, looked up): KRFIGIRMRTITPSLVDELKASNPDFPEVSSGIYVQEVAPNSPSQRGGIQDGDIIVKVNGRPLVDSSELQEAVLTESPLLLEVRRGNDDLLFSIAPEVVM

T7: LNX2_3, Q8N448
T7 sequence (Q8N448 463-564, limits assumed, looked up): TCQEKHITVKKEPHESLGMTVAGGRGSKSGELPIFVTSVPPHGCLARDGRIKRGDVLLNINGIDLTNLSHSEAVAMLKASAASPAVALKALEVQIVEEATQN

T8: LRRC7, Q96NW7
T8 sequence (Q96NW7 1440-1537, limits assumed, looked up): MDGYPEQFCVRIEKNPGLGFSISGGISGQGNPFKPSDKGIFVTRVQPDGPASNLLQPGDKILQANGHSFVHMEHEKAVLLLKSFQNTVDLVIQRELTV

T9: NHERF3_3, Q5T2W1
T9 sequence (Q5T2W1 238-333, limits assumed, looked up): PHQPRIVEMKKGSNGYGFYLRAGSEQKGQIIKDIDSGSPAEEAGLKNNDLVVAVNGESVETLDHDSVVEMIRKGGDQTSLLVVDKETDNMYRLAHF

T10: NHERF3_4, Q5T2W1
T10 sequence (Q5T2W1 373-468, limits assumed, looked up): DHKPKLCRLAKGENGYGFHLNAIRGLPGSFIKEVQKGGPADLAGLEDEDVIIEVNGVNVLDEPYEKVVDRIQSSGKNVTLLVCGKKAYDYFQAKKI

T11: PDZD2_2, O15018
T11 sequence (O15018 329-429, limits assumed, looked up): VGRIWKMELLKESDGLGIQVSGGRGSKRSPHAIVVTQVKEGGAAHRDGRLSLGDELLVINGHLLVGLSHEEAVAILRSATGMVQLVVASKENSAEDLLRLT

T12: PDZD7_3, Q9H5P4
T12 sequence (Q9H5P4 857-944, limits assumed, looked up): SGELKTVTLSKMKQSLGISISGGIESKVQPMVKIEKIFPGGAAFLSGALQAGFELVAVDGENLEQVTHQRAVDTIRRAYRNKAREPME

T13: TJP3_3, O95049
T13 sequence (O95049 375-456, limits assumed, looked up): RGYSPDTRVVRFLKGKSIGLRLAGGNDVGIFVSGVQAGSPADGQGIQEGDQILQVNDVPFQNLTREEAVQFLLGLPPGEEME


Target: T1, APBA2_1, Q99767
Experiment: holdup assay
Parameters: key: below the threshold = too weak to quantify, mostly under pKd 3.1 to 4
Details: plain residues with an end cap or a label only (N-terminal biotin on a linker: ado-ado)

pKd	Binder
3.55	GDSSRKEYFI [GYPC, P04921]
below the threshold	SRPHTNETSL [MCC, P23508]
below the threshold	FHSIKQSTAV [CRHR1, P34998]

Target: T2, APBA2_2, Q99767
Experiment: holdup assay
Parameters: key: below the threshold = too weak to quantify, mostly under pKd 3.1 to 4
Details: plain residues with an end cap or a label only (N-terminal biotin on a linker: ado-ado)

pKd	Binder
below the threshold	GDSSRKEYFI [GYPC, P04921]
below the threshold	SRPHTNETSL [MCC, P23508]
below the threshold	FHSIKQSTAV [CRHR1, P34998]

Target: T3, ARHGAP21, Q5T5U3
Experiment: holdup assay
Parameters: key: below the threshold = too weak to quantify, mostly under pKd 3.1 to 4
Details: plain residues with an end cap or a label only (N-terminal biotin on a linker: ado-ado)

pKd	Binder
below the threshold	GDSSRKEYFI [GYPC, P04921]
4.01	SRPHTNETSL [MCC, P23508]
below the threshold	FHSIKQSTAV [CRHR1, P34998]

Target: DLG1_1, Q12959
Experiment: holdup assay
Parameters: key: below the threshold = too weak to quantify, mostly under pKd 3.1 to 4
Details: plain residues with an end cap or a label only (N-terminal biotin on a linker: ado-ado)

pKd	Binder
3.49	GDSSRKEYFI [GYPC, P04921]
3.72	SRPHTNETSL [MCC, P23508]
4.39	FHSIKQSTAV [CRHR1, P34998]

Target: DLG2_3, Q15700
Experiment: holdup assay
Parameters: key: below the threshold = too weak to quantify, mostly under pKd 3.1 to 4
Details: plain residues with an end cap or a label only (N-terminal biotin on a linker: ado-ado)

pKd	Binder
3.84	GDSSRKEYFI [GYPC, P04921]
3.95	SRPHTNETSL [MCC, P23508]
4.54	FHSIKQSTAV [CRHR1, P34998]

Target: T4, FRMPD1, Q5SYB0
Experiment: holdup assay
Parameters: key: below the threshold = too weak to quantify, mostly under pKd 3.1 to 4
Details: plain residues with an end cap or a label only (N-terminal biotin on a linker: ado-ado)

pKd	Binder
below the threshold	GDSSRKEYFI [GYPC, P04921]
below the threshold	SRPHTNETSL [MCC, P23508]
below the threshold	FHSIKQSTAV [CRHR1, P34998]

Target: FRMPD3, Q5JV73
Sequence (Q5JV73 12-100): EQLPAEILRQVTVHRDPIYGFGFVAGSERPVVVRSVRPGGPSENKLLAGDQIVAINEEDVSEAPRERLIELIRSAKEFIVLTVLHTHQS
Experiment: holdup assay
Parameters: key: below the threshold = too weak to quantify, mostly under pKd 3.1 to 4
Details: plain residues with an end cap or a label only (N-terminal biotin on a linker: ado-ado)

pKd	Binder
below the threshold	GDSSRKEYFI [GYPC, P04921]
below the threshold	SRPHTNETSL [MCC, P23508]
below the threshold	FHSIKQSTAV [CRHR1, P34998]

Target: GOPC, Q9HD26
Experiment: holdup assay
Parameters: key: below the threshold = too weak to quantify, mostly under pKd 3.1 to 4
Details: plain residues with an end cap or a label only (N-terminal biotin on a linker: ado-ado)

pKd	Binder
below the threshold	GDSSRKEYFI [GYPC, P04921]
3.9	SRPHTNETSL [MCC, P23508]
4	FHSIKQSTAV [CRHR1, P34998]

Target: T5, GRIP1_3, Q9Y3R0
Experiment: holdup assay
Parameters: key: below the threshold = too weak to quantify, mostly under pKd 3.1 to 4
Details: plain residues with an end cap or a label only (N-terminal biotin on a linker: ado-ado)

pKd	Binder
below the threshold	GDSSRKEYFI [GYPC, P04921]
below the threshold	SRPHTNETSL [MCC, P23508]
below the threshold	FHSIKQSTAV [CRHR1, P34998]

Target: GRIP2_7, Q9C0E4
Sequence (Q9C0E4 934-1023): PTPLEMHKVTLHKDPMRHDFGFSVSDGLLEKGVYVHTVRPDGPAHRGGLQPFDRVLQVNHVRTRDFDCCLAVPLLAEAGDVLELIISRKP
Experiment: holdup assay
Parameters: key: below the threshold = too weak to quantify, mostly under pKd 3.1 to 4
Details: plain residues with an end cap or a label only (N-terminal biotin on a linker: ado-ado)

pKd	Binder
5.33	GDSSRKEYFI [GYPC, P04921]
below the threshold	SRPHTNETSL [MCC, P23508]
below the threshold	FHSIKQSTAV [CRHR1, P34998]

Target: T6, HTRA3, P83110
Experiment: holdup assay
Parameters: key: below the threshold = too weak to quantify, mostly under pKd 3.1 to 4
Details: plain residues with an end cap or a label only (N-terminal biotin on a linker: ado-ado)

pKd	Binder
4.64	GDSSRKEYFI [GYPC, P04921]
below the threshold	SRPHTNETSL [MCC, P23508]
below the threshold	FHSIKQSTAV [CRHR1, P34998]

Target: IL16_3, Q14005
Sequence (Q14005 1107-1207): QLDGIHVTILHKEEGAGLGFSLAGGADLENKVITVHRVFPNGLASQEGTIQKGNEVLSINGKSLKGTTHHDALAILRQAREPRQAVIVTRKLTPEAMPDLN
Experiment: holdup assay
Parameters: key: below the threshold = too weak to quantify, mostly under pKd 3.1 to 4
Details: plain residues with an end cap or a label only (N-terminal biotin on a linker: ado-ado)

pKd	Binder
below the threshold	GDSSRKEYFI [GYPC, P04921]
below the threshold	SRPHTNETSL [MCC, P23508]
below the threshold	FHSIKQSTAV [CRHR1, P34998]

Target: Inadl_3, Q8NI35
Sequence (Q8NI35 359-469): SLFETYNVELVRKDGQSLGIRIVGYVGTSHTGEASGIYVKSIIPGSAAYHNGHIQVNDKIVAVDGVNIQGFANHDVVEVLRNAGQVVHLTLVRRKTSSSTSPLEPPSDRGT
Experiment: holdup assay
Parameters: key: below the threshold = too weak to quantify, mostly under pKd 3.1 to 4
Details: plain residues with an end cap or a label only (N-terminal biotin on a linker: ado-ado)

pKd	Binder
4.2	GDSSRKEYFI [GYPC, P04921]
below the threshold	SRPHTNETSL [MCC, P23508]
below the threshold	FHSIKQSTAV [CRHR1, P34998]

Target: Inadl_5, Q8NI35
Sequence (Q8NI35 673-780): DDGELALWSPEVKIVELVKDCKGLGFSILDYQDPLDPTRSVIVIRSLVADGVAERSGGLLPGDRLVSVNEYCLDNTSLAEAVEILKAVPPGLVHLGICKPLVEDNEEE
Experiment: holdup assay
Parameters: key: below the threshold = too weak to quantify, mostly under pKd 3.1 to 4
Details: plain residues with an end cap or a label only (N-terminal biotin on a linker: ado-ado)

pKd	Binder
5.16	GDSSRKEYFI [GYPC, P04921]
below the threshold	SRPHTNETSL [MCC, P23508]
below the threshold	FHSIKQSTAV [CRHR1, P34998]

Target: Inadl_9, Q8NI35
Sequence (Q8NI35 1530-1615): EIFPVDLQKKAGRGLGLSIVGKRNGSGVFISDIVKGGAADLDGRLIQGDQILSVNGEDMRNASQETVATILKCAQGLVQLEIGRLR
Experiment: holdup assay
Parameters: key: below the threshold = too weak to quantify, mostly under pKd 3.1 to 4
Details: plain residues with an end cap or a label only (N-terminal biotin on a linker: ado-ado)

pKd	Binder
3.51	GDSSRKEYFI [GYPC, P04921]
below the threshold	SRPHTNETSL [MCC, P23508]
3.83	FHSIKQSTAV [CRHR1, P34998]

Target: LNX1_1, Q8TBB1
Sequence (Q8TBB1 261-371): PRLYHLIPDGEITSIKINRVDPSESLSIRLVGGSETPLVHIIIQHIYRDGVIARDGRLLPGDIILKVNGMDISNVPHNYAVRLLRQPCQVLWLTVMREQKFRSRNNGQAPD
Experiment: holdup assay
Parameters: key: below the threshold = too weak to quantify, mostly under pKd 3.1 to 4
Details: plain residues with an end cap or a label only (N-terminal biotin on a linker: ado-ado)

pKd	Binder
below the threshold	GDSSRKEYFI [GYPC, P04921]
below the threshold	SRPHTNETSL [MCC, P23508]
below the threshold	FHSIKQSTAV [CRHR1, P34998]

Target: T7, LNX2_3, Q8N448
Experiment: holdup assay
Parameters: key: below the threshold = too weak to quantify, mostly under pKd 3.1 to 4
Details: plain residues with an end cap or a label only (N-terminal biotin on a linker: ado-ado)

pKd	Binder
below the threshold	GDSSRKEYFI [GYPC, P04921]
below the threshold	SRPHTNETSL [MCC, P23508]
below the threshold	FHSIKQSTAV [CRHR1, P34998]

Target: T8, LRRC7, Q96NW7
Experiment: holdup assay
Parameters: key: below the threshold = too weak to quantify, mostly under pKd 3.1 to 4
Details: plain residues with an end cap or a label only (N-terminal biotin on a linker: ado-ado)

pKd	Binder
below the threshold	GDSSRKEYFI [GYPC, P04921]
below the threshold	SRPHTNETSL [MCC, P23508]
3.49	FHSIKQSTAV [CRHR1, P34998]

Target: MAST1, Q9Y2H9
Sequence (Q9Y2H9 962-1065): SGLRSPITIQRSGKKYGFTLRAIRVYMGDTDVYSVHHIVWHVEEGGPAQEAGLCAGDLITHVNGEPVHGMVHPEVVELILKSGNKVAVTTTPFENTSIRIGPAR
Experiment: holdup assay
Parameters: key: below the threshold = too weak to quantify, mostly under pKd 3.1 to 4
Details: plain residues with an end cap or a label only (N-terminal biotin on a linker: ado-ado)

pKd	Binder
below the threshold	GDSSRKEYFI [GYPC, P04921]
4.96	SRPHTNETSL [MCC, P23508]
4.74	FHSIKQSTAV [CRHR1, P34998]

Target: T9, NHERF3_3, Q5T2W1
Experiment: holdup assay
Parameters: key: below the threshold = too weak to quantify, mostly under pKd 3.1 to 4
Details: plain residues with an end cap or a label only (N-terminal biotin on a linker: ado-ado)

pKd	Binder
below the threshold	GDSSRKEYFI [GYPC, P04921]
below the threshold	SRPHTNETSL [MCC, P23508]
below the threshold	FHSIKQSTAV [CRHR1, P34998]

Target: T10, NHERF3_4, Q5T2W1
Experiment: holdup assay
Parameters: key: below the threshold = too weak to quantify, mostly under pKd 3.1 to 4
Details: plain residues with an end cap or a label only (N-terminal biotin on a linker: ado-ado)

pKd	Binder
below the threshold	GDSSRKEYFI [GYPC, P04921]
below the threshold	SRPHTNETSL [MCC, P23508]
4.27	FHSIKQSTAV [CRHR1, P34998]

Target: T11, PDZD2_2, O15018
Experiment: holdup assay
Parameters: key: below the threshold = too weak to quantify, mostly under pKd 3.1 to 4
Details: plain residues with an end cap or a label only (N-terminal biotin on a linker: ado-ado)

pKd	Binder
4.28	GDSSRKEYFI [GYPC, P04921]
below the threshold	SRPHTNETSL [MCC, P23508]
4.48	FHSIKQSTAV [CRHR1, P34998]

Target: T12, PDZD7_3, Q9H5P4
Experiment: holdup assay
Parameters: key: below the threshold = too weak to quantify, mostly under pKd 3.1 to 4
Details: plain residues with an end cap or a label only (N-terminal biotin on a linker: ado-ado)

pKd	Binder
below the threshold	GDSSRKEYFI [GYPC, P04921]
4.36	SRPHTNETSL [MCC, P23508]
4.36	FHSIKQSTAV [CRHR1, P34998]

Target: TJP1_3, Q07157
Sequence (Q07157 416-512): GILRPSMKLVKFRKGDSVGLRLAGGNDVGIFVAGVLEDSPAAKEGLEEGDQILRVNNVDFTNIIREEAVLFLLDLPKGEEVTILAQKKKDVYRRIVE
Experiment: holdup assay
Parameters: key: below the threshold = too weak to quantify, mostly under pKd 3.1 to 4
Details: plain residues with an end cap or a label only (N-terminal biotin on a linker: ado-ado)

pKd	Binder
below the threshold	GDSSRKEYFI [GYPC, P04921]
below the threshold	SRPHTNETSL [MCC, P23508]
below the threshold	FHSIKQSTAV [CRHR1, P34998]

Target: T13, TJP3_3, O95049
Experiment: holdup assay
Parameters: key: below the threshold = too weak to quantify, mostly under pKd 3.1 to 4
Details: plain residues with an end cap or a label only (N-terminal biotin on a linker: ado-ado)

pKd	Binder
3.69	GDSSRKEYFI [GYPC, P04921]
below the threshold	SRPHTNETSL [MCC, P23508]
below the threshold	FHSIKQSTAV [CRHR1, P34998]

Reference: article PMC9482650, “Quantitative fragmentomics allow affinity mapping of interactomes” (Nature Communications, 2022)
